Reference: US20250043302A1, “MUTATED HYDROXYPHENYLPYRUVATE DIOXYGENASE POLYPEPTIDE, AND CODING GENE AND USE THEREOF” (BEIJING DABEINONG BIOTECHNOLOGY CO., LTD., priority 2021, published 2025)

Legend:
Format in all cases: in vivo
[1] = tested on: Arabidopsis thaliana T1 plants; test: Mesotrione tolerance of transgenic Arabidopsis thaliana T1 plants (spray, bleached leaf area grade, damage score); design: Scores: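 damage score 0-100 computed as Σ(N×S)/(T×M)×100 over grades 0-3 with higher meaning more damage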; conditions: Arabidopsis thaliana T1 plants; for Grade 0 (classification and statistics of the grade of pesticide damage; number of plants) / Grade 1 (classification and statistics of the grade of pesticide damage; number of plants) / Grade 2 (classification and statistics of the grade of pesticide damage; number of plants) / Grade 3 (classification and statistics of the grade of pesticide damage; number of plants): 16 plants
Procedure, shortened: (§1)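 Read-out: per-plant damage grade 0–3 from proportion of bleached leaf area at 7 DAT (1 <50%, 2 >50%, 3 100%). Plants were T1 transformants, glufosinate-selected, plus wild-type CK, sprayed 18 days post-sowing. Rates: topramezone 25–200, isoxaflutole 35–280, mesotrione 52.5–420 g ai/ha.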

[2] = tested on: Arabidopsis thaliana T1 plants; test: Isoxaflutole tolerance of transgenic Arabidopsis thaliana T1 plants (spray, bleached leaf area grade, damage score); design: Scores (pesticide damage): scale not given here; conditions: spray, Arabidopsis thaliana T1 plants; for Classification and statistics of the grade of pesticide damage: Grade 0 (number of plants) / Classification and statistics of the grade of pesticide damage: Grade 1 (number of plants) / Classification and statistics of the grade of pesticide damage: Grade 2 (number of plants) / Classification and statistics of the grade of pesticide damage: Grade 3 (number of plants): 16 plants
Procedure, shortened: as §1

[3] = tested on: Arabidopsis thaliana T1 plants; test: Topramezone tolerance of transgenic Arabidopsis thaliana T1 plants (spray, bleached leaf area grade, damage score); conditions: 7 DAT, Table 4; for Classification and statistics of the grade of pesticide damage: Grade 0 / Classification and statistics of the grade of pesticide damage: Grade 1 / Classification and statistics of the grade of pesticide damage: Grade 2 / Classification and statistics of the grade of pesticide damage: Grade 3: number of plants; for Scores: pesticide damage score 0-100
Procedure, shortened: as §1

[4] = isoxaflutole 35 g ai/ha (0.5x field concentration)
[5] = isoxaflutole 70 g ai/ha (1x field concentration)

B1: MsHPPDm-F383W-02: nucleotide sequence encoding Medicago sativa HPPD with F383W; vector DBN11736 (nucleic acid)
DNA: ATGGCTATTGAAACCGAAACACAAACTCAGACTGGATTTAAACTGGTAGGGTTCAAGAATTTCGTTAGGGCTAATCCCAAGTCTGATCGTTTTAAGGTCAAGAGGTTCCACCACGTGGAGTTCTGGTGCACTGATGCAACCAACACGGCGCGGCGTTTTTCACATGGTCTTGGAATGCCTATTGTTGCAAAATCCGACCTCTCCACGGGGAACCAAACACACGCCTCTTACCTGCTACGGAGTGGTGACTTGAACTTCCTCTTCAGCGCCGCCTACTCACCCTCCATATCGTTGTCTTCACCATCCTCGACCGCAGCAATTCCTACATTTTCTGCGAGCAACTGCTTCTCTTTCTCTGCCAGTCATGGCCTCGCCGTCAGAGCAGTGGCCGTTGAAGTAGAGGATGCTGAACTTGCTTTTACAACTTCAGTGAATAATGGAGCAATACCGAGCAGTCCGCCGGTCATACTTGAGAATCATGTGAAGCTAGCGGAGGTGAGGCTTTATGGGGACGTCGTTTTAAGATATGTCAGCTACAATGATCCAAACCCCAATCAAAATCCAAATTTGTTGTTCCTTCCTGGCTTCGAGCGTGTTAGCGATGAATCTTCAAACTCTTCACTGGATTTTGGAATCAGACGGTTGGATCATGCTGTTGGAAATGTTCCTGAACTCTCGAGCGCTGTGAAATATGTGAAGGACTTCACCGGTTTTCATGAATTTGCTGAGTTTACTGCAGAAGATGTGGGTACATCAGAGAGTGGCTTGAATTCCGTGGTGCTCGCCAACAACGAGGAGACTGTACTCTTACCAATGAATGAGCCAGTCTATGGCACCAAGCGTAAATCTCAAATTGAGACATATTTGGAGCACAATGAAGGAGCTGGACTTCAGCATCTCGCGCTGAAGAGTGAGGACATCTTCCGCACCCTACGGGAGATGAGGAAAAGAAGTGGTGTTGGTGGGTTTGAATTCATGCCATCACCTCCTGTCACCTACTACAGGAACCTGAAGAACAGAGTTGGTGATGTACTTTCGGACGAGCAGATAAAGGAATGTGAAGAGTTGGGGATTTTGGTTGATAGAGATGATCAAGGAACACTCCTGCAGATTTTTACAAAACCAATTGGCGACCGCCCCACTATCTGGATAGAGATCATCCAGAGGGTGGGGTGCATGCTCAAAGACGAGGAAGGGAAGGAGTACCAGAAGGGCGGCTGTGGTGGTTTTGGGAAAGGAAACTTTTCTGAGTTATTCAAATCAATTGAAGAGTATGAGAAGACGCTTGAAACGCGTCGCACTGCTTGA
modifications: MsHPPDm-F383W-02 Nucleotide Sequence
notes: vector DBN11736
Resistance evaluation ([1]; mesotrione 52.5 g ai/ha): Non-resistant | Scores ([1]; mesotrione 52.5 g ai/ha): 100 | Grade 0 (classification and statistics of the grade of pesticide damage; number of plants) ([1]; mesotrione 52.5 g ai/ha): 0 | Grade 1 (classification and statistics of the grade of pesticide damage; number of plants) ([1]; mesotrione 52.5 g ai/ha): 0 | Grade 2 (classification and statistics of the grade of pesticide damage; number of plants) ([1]; mesotrione 52.5 g ai/ha): 0 | Grade 3 (classification and statistics of the grade of pesticide damage; number of plants) ([1]; mesotrione 52.5 g ai/ha): 16 | Resistance evaluation ([1]; mesotrione 105 g ai/ha): Non-resistant | Scores ([1]; mesotrione 105 g ai/ha): 100 | Grade 0 (classification and statistics of the grade of pesticide damage; number of plants) ([1]; mesotrione 105 g ai/ha): 0 | Grade 1 (classification and statistics of the grade of pesticide damage; number of plants) ([1]; mesotrione 105 g ai/ha): 0 | Grade 2 (classification and statistics of the grade of pesticide damage; number of plants) ([1]; mesotrione 105 g ai/ha): 0 | Grade 3 (classification and statistics of the grade of pesticide damage; number of plants) ([1]; mesotrione 105 g ai/ha): 16 | Resistance evaluation [2, 4]: Non-resistant | Scores (pesticide damage) [2, 4]: 88 | Classification and statistics of the grade of pesticide damage: Grade 0 (number of plants) [2, 4]: 0 | Classification and statistics of the grade of pesticide damage: Grade 1 (number of plants) [2, 4]: 0 | Classification and statistics of the grade of pesticide damage: Grade 2 (number of plants) [2, 4]: 6 | Classification and statistics of the grade of pesticide damage: Grade 3 (number of plants) [2, 4]: 10 | Resistance evaluation [2, 5]: Non-resistant | Scores (pesticide damage) [2, 5]: 100 | Classification and statistics of the grade of pesticide damage: Grade 0 (number of plants) [2, 5]: 0 | Classification and statistics of the grade of pesticide damage: Grade 1 (number of plants) [2, 5]: 0 | Classification and statistics of the grade of pesticide damage: Grade 2 (number of plants) [2, 5]: 0 | Classification and statistics of the grade of pesticide damage: Grade 3 (number of plants) [2, 5]: 16 | Classification and statistics of the grade of pesticide damage: Grade 0 ([3]; topramezone 25 g ai/ha (1×)): 0 | Classification and statistics of the grade of pesticide damage: Grade 1 ([3]; topramezone 25 g ai/ha (1×)): 0 | Classification and statistics of the grade of pesticide damage: Grade 2 ([3]; topramezone 25 g ai/ha (1×)): 4 | Classification and statistics of the grade of pesticide damage: Grade 3 ([3]; topramezone 25 g ai/ha (1×)): 12 | Classification and statistics of the grade of pesticide damage: Grade 0 ([3]; topramezone 100 g ai/ha (4×)): 0 | Classification and statistics of the grade of pesticide damage: Grade 1 ([3]; topramezone 100 g ai/ha (4×)): 0 | Classification and statistics of the grade of pesticide damage: Grade 2 ([3]; topramezone 100 g ai/ha (4×)): 0 | Classification and statistics of the grade of pesticide damage: Grade 3 ([3]; topramezone 100 g ai/ha (4×)): 16 | Scores ([3]; topramezone 25 g ai/ha (1×)): 92 | Scores ([3]; topramezone 100 g ai/ha (4×)): 100 | Resistance evaluation ([3]; topramezone 25 g ai/ha (1×)): non-resistant (non-resistant plants (scores 68-100)) | Resistance evaluation ([3]; topramezone 100 g ai/ha (4×)): non-resistant (non-resistant plants (scores 68-100))
